What was measured:
[1] = target: T1, C-RAF P261T resistance mutant (human, UniProt P04049 1-648); test: C-RAF immunoprecipitation, 14-3-3ζ immunoblot, 293T and A375 cells, no RAF inhibitor (FIG. 7A, 7B)
T1 construct: His/V5- or Flag-tagged in the homodimerization assays

[2] = target: T2, C-RAF G361A resistance mutant (human, UniProt P04049 1-648); test: as above
T2 construct: His/V5- or Flag-tagged in the homodimerization assays; also called 361G>A

[3] = target: T3, C-RAF S257P resistance mutant (human, UniProt P04049 1-648); test: as above
T3 construct: His/V5- or Flag-tagged in the homodimerization assays

[4] = target: T4, wild-type human C-RAF (human, UniProt P04049 1-648); test: C-RAF immunoprecipitation, 14-3-3ζ immunoblot, A375 cells with and without 2 µM vemurafenib (FIG. 7B)
T4 construct: In the homodimerization assays the copies carried a His/V5 tag or a Flag tag; also called WT-C-RAF; C-RAF (WT)

Measured: binding result

B1: 14-3-3 ζ (other, UniProt P63104 1-245, looked up)
chain: MDKNELVQKAKLAEQAERYDDMAACMKSVTEQGAELSNEERNLLSVAYKNVVGARRSSWRVVSSIEQKTEGAEKKQQMAREYREKIETELRDICNDVLSLLEKFLIPNASQAESKVFYLKMKGDYYRYLAEVAAGDDKKGIVDQSQQAYQEAFEISKKEMQPTHPIRLGLALNFSVFYYEILNSPEKACSLAKTAFDEAIAELDTLSEESYKDSTLIMQLLRDNLTLWTSDTQGDEAEAGEGGEN
notes: The Western blot methods list a 14-3-3ζ antibody (Cell Signaling)
binds: all assays above

— patent publication US20240093310A1 (Dana-Farber, published 2024)
